Test [1] has as its target T1, carrier free RGMa (R&D Systems) (UniProt Q96B86 48-422, limits assumed).
T1 construct: also called RGMa-CF
T1 sequence (looked up): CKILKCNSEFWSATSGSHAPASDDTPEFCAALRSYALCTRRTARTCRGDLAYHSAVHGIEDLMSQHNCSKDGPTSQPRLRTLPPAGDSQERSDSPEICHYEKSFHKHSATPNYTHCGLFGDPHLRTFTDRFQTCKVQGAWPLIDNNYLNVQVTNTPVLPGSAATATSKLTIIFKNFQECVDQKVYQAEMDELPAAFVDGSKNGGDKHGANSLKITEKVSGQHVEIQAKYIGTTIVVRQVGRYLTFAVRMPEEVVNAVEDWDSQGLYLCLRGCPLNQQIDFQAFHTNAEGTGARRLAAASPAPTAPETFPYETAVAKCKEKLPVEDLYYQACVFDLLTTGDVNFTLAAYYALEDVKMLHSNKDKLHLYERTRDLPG
In words: EIA on coated carrier-free RGMa (summary of specificity). The protocol: (§1) Clones were then tested for cross-reactivity with RGMa and RGMb by EIA. Carrier free RGMa, RGMb, or RGMc (R&D Systems) was coated on the solid phase of micro-titer EIA plates at 0.5 ug/mL. After the antigen had been coated on the solid phase, it was removed and any open binding sites on the plates were blocked using fish gel block solution. The wells were washed with distilled water following this incubation. Cell supernatants and control reagents were added to the blocked plates and allowed to incubate at room temperature for at least one hour. The negative control was a purified mouse mAb from a different antigen system. The positive control for RGMa, RGMb, & RGMc was a goat anti-RGMa, RGMb, or RGMc polyclonal antibody (R&D Systems). Following this incubation, the solutions were removed from the plates and they were washed with distilled water. Donkey anti-Goat IgG-HRPO diluted to approximately 200 ng/mL in block solution was added to the plates with the positive control test samples and goat anti-mouse IgG-HRPO (Jackson Immunoresearch) diluted to approximately 200 ng/mL in block solution was added to the plates with the fusion #1 test samples. All plates were allowed to incubate for 30 minutes at room temperature. The plates were washed with distilled water and o-phenylenediamine substrate was used as the chromogen to generate signal. Plates were read at 492 nm and the results were analyzed.

Test [2] deals with T2, carrier free RGMb (R&D Systems) (UniProt Q6NW40 46-413, limits assumed).
T2 construct: also called RGMb-CF
T2 sequence (looked up): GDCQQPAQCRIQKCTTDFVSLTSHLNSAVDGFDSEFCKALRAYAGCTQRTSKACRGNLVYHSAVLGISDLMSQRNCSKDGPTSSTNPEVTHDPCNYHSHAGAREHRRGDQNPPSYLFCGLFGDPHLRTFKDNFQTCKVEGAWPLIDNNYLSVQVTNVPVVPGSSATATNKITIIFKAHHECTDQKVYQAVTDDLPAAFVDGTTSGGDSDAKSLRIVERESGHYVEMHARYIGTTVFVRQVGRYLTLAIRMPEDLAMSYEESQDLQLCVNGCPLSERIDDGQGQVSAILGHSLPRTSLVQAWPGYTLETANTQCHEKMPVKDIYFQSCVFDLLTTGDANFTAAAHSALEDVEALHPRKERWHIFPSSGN
Nature of the test: EIA on coated carrier-free RGMb (summary of specificity). The protocol: as §1

For test [3], the target named is T3, RGMc antigen: amino acids 33-391 of RGMc followed by human Fc (human, UniProt Q6ZVN8 33-391).
T3 construct: also called RGMc-huFc; RGMc-Fc; not shown: human Fc
T3 sequence: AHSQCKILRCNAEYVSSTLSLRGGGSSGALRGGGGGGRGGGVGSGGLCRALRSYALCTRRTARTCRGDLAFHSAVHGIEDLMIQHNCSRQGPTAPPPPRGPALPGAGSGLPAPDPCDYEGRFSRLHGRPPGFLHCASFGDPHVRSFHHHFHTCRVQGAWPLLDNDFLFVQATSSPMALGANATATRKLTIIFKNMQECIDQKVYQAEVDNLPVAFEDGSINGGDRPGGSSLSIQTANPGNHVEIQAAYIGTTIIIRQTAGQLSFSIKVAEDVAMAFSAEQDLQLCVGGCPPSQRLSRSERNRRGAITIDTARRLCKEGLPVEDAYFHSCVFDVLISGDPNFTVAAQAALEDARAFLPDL
In words: chemiluminescence immunoassay: supernatant mAb captured on sheep anti-mouse IgG Fc, RGMc-huFc at 200 ng/mL, acridinium-labeled goat anti-RGMc detection. The protocol: Cell supernatant samples were analyzed for anti-RGMc antibodies by Chemiluminescence immunoassay (CIA). Sheep anti-mouse IgG Fc (Jackson Immunoresearch, West Grove, Pa.) was coated on 96 well micro-titer CIA plates (NUNC) at 5 ug/mL. After the capture reagent had been coated on the solid phase, it was removed and any open binding sites on the plates were blocked using a Fish gel/PBS (2% v/v) block solution. The wells were washed with distilled water and cell supernatants were added to the blocked plates and allowed to incubate at room temperature for at least one hour. The anti-mouse IgG Fc captures the anti-RGMc mouse antibody from the supernatant. Following the incubation, the supernatants were washed off using distilled water. A mouse/human IgG chimeric antibody (Abbott Laboratories) diluted in fish gel block to 5 ug/ml was added to each well and incubated for approximately 30 minutes at room temperature to block any captured mAbs that are specific for human IgG Fc portion of the immunogen. Following the incubation, the human IgG blocking solution was washed off using distilled water. RGMc-huFc antigen was then added to the plates at 200 ng/mL in fish gel block and incubated for 30 minutes at room temperature. Following this incubation, the antigen was washed from the plates using distilled water. Acridinium labeled goat anti-RGMc polyclonal antibody (R&D Systems, Minneapolis, Minn.) was diluted to 200 ng/ml in fish gel block, then added to the plates and allowed to incubate for 30 minutes at room temperature. The plates were washed with distilled water then processed on the Microbeta Jet instrument (Perkin Elmer, Waltham, Mass.). The Microbeta Jet adds Architect© Pre-Trigger and Trigger solutions (Abbott Laboratories). The plates are then read for flash chemiluminescence in luminescent counts per second (LCPS). […] The positive control (PC) used in this assay was spent medium from unfused splenocytes harvested from mouse #814 that were cultured for 7 to 10 days at 37° C.

Test [4] concerns the target T3, RGMc antigen: amino acids 33-391 of …. Nature of the test: direct EIA: RGMc-huFc coated at 1.0 ug/mL; supernatant diluted 1:125; goat anti-mouse IgG Fc-HRPO. The protocol: (§2) A mouse:human chimeric antibody or RGMc-huFc was coated on the solid phase of micro-titer EIA plates at 1.0 ug/mL. After the antigen had been coated on the solid phase, it was removed and any open binding sites on the plates were blocked using BSA block solution. The wells were washed with distilled water. Cell supernatants and control reagents were added to the blocked plates and allowed to incubate at room temperature for at least one hour. The negative control was a purified mAb from a different antigen system. The positive control for human IgG was a purified anti-hu IgG mAb developed against another antigen containing human IgG Fc carrier protein. The RGMc positive control is Novus mab 1C12. Following this incubation, the solutions were removed from the plates and they were washed with distilled water. Goat anti-mouse IgG Fc-HRPO (Jackson Immunoresearch) diluted to approximately 200 ng/mL in block solution was added to the plates and allowed to incubate for 30 minutes at room temperature. The plates were washed with distilled water and o-phenylenediamine substrate (Abbott Laboratories) was used as the chromogen to generate signal. Plates were read at 492 nm and the results were analyzed.

The target of test [5] is T4, mouse:human chimeric antibody (used as human IgG / human IgG Fc antigen).
T4 construct: also called Hu IgG; human IgG Fc portion
In words: direct EIA: mouse:human chimeric antibody coated at 1.0 ug/mL; supernatant diluted 1:125; goat anti-mouse IgG Fc-HRPO. As to the method: as §2

Test [6] addresses T5, carrier free RGMc (R&D Systems) (human, UniProt Q6ZVN8 36-400).
T5 construct: also called RGMc-CF
T5 sequence (looked up): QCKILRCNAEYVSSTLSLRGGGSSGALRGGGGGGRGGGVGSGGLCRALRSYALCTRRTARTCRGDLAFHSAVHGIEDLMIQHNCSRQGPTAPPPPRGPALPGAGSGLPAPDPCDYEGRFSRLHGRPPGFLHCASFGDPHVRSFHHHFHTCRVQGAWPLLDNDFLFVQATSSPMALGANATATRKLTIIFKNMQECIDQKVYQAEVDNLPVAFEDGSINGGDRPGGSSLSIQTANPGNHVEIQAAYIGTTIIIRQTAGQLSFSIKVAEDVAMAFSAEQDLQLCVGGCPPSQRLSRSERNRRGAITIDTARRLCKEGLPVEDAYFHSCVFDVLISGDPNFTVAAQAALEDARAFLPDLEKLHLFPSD
Nature of the test: … two-step sandwich chemiluminescent assay; 1A-2493-121 on microparticles as capture, goat polyclonal AF3720 conjugate as detection.

In test [7] the target is T3, RGMc antigen: amino acids 33-391 of …. In words: … two-step sandwich chemiluminescent assay; 1A-2493-121 on microparticles as capture, goat polyclonal AF3720 CPSP conjugate as detection. The protocol: The Architect assay is a two-step assay format, wherein a 30 μl sample is mixed with 50 μl of line diluent. […] At the end of 18 minutes, unbound sample is washed away. 50 μl of R&D System Goat polyclonal AF3720 CPSP conjugate at 800 ng/mL was added to the mixture, vortexed, and incubated for 4 minutes. […] The relative light units are then measured.

B1: 1A-2258-107 (antibody, V domains shown)
VH: EVQLVESGGGLVKPGGSLKLSCAASGFTFSDYFMFWVRQTPEKRLEWVATISDGGSYTYYSDSVKGRFTISRDNAKNNLFLQMSSLKSEDTAMYYCARDKYGDYDAMDYWGQGTSVTVSS
VL: DVVLTQSPASLAVSLGQRATISCKASQSVDYDSDSYMNWYQQKPGQPPKLLIYAASNLESGIPARFSGGGSGTDFTLNIHPVEEEDAATYYCQQSNEDPPTFGGGTKLEIKR
Consider B1, for which the binding result in test [1] and in test [2] was “no binding” in each case. In test [3], this molecule returned an LCPS of 2640 LCPS.

B2: 1A-2151-163 (antibody, V domains shown)
VH: EVQLQQSGPELLKPGASVKISCKASGYSFTDNTIHWVKQSQRKSLEWIGGISPRYGDIRYNVQFKDKATLTVDKSSSTAYMELRSLTSEDSAVYYCTRWDDGYYEDYAMDYWGQGTSVTVSS
VL: DILLTQSPAILSVSPGERVSFSCRASQSIGTSLHWYQQRRNGSPRLLIKYASESISGIPSRFSGSGSGTDFTLSINTVESEDIADYYCQQSNSWPYTFGGGTKLEIKR
As to B2, the “absorbance at 492 nm” value was 1.25 in test [4] and 0.07 in test [5]. In addition, the binding result in test [1] and in test [2] was “no binding” throughout. In addition, the LCPS in test [3] was determined as 4390 LCPS.

B3: anti-RGMc 1A-2493-121 monoclonal antibody (antibody, V domains shown)
VH: DVQLQASGPDLVKPSQSLSLTCTVTGYSITSGYSWHWIRQFPGNKLEWMAYIHYTGDSNYNPSLKSRISITRDTSKNQFFLQLTSVTTEDTATYYCALFGLSGYWGQGTLVTVSA
VL: DVLMTQTPLSLPVSLGDQASISCRSSQNIIHSNGNTYLDWYLQKPGQSPKVLIYKVSNRFSGVPDRFSGSGSGTDFILKISRVEAEDLGVYYCLQGSHVPWTFGGGTKLEIKR
For B3, the binding result in test [6] and in test [7] was “binds” in each case.

(Values after patent US20130330359A1 (AbbVie / Abbott, published 2013).)
